Here are results for 10 molecules from patent US20240287172A1 (SCIRHOM, published 2024).

Usually Kd stands for the concentration at which binding is half-saturated. A higher Kd goes with a looser complex.

Numbering of substitutions follows the chain as printed.

In this assay the target is T1, human iRhom2, endogenously expressed (human, UniProt Q6PJF5 1-856).
T1 construct: also called RHBDF2
T1 sequence: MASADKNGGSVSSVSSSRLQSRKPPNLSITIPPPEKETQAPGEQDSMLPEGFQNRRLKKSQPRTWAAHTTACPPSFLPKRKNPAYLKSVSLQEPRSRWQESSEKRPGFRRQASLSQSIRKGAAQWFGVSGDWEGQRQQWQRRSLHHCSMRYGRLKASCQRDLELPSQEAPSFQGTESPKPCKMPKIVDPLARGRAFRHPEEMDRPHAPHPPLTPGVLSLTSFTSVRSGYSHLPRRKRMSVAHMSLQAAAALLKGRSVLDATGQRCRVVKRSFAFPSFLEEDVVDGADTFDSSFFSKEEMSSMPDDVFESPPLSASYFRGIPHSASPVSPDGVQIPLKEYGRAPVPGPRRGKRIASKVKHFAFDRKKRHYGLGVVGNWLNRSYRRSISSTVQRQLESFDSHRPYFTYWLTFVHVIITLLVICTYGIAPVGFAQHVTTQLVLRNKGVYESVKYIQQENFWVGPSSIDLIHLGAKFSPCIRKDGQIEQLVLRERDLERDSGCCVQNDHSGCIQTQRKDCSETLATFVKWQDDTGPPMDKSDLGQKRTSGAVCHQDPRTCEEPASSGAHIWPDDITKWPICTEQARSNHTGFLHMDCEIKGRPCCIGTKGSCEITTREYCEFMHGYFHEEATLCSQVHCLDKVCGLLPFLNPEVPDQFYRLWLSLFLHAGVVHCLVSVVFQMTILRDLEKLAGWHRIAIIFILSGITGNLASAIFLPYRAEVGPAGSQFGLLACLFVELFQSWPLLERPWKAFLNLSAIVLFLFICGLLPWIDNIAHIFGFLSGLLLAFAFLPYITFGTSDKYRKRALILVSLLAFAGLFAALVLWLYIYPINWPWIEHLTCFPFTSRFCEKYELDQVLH
The assay can be described thus: indirect FACS scatchard analysis on THP-1 cells. How it is done:
In brief, human THP-1 cells (American Type Culture Collection, USA) were harvested with 10 mM EDTA in PBS, washed and resuspended in FACS buffer (PBS, 3% FBS, 0.05% sodium azide), and seeded in Nunc U-bottom 96-well plates (Thermo Fisher Scientific, USA) at approximately 3×10⁵ cells per well. In order to pellet cells and remove supernatants, the plates were centrifuged at 1,500 rpm and 4° C. for 3 minutes. For primary staining, cells were resuspended in 100 μl per well of either FACS buffer alone (controls) or serial two-fold dilutions (in total 22 concentrations) of the purified antibodies 3, 5, 16, 22, 34, 42, 43, 44, 48, and 50 of the invention in FACS buffer starting at 40 μg/ml and incubated on ice for 1 hour. Afterwards, plates were centrifuged at 1,500 rpm and 4° C. for 3 minutes and washed twice with 200 μl per well of FACS buffer. For secondary staining, cells were spun down and resuspended in 100 μl per well of PE-conjugated goat anti-mouse IgG F(ab′)2 detection fragment (Dianova, Germany) diluted 1:100 in FACS buffer. Protected from light, the cell suspensions were incubated on ice for 1 hour. Plates were then centrifuged at 1,500 rpm and 4° C. for 3 minutes and washed three times with 200 μl per well of FACS buffer. Finally, cells were resuspended in 150 μl per well of FACS buffer and analyzed using a BD Accuri™ C6 Plus flow cytometer (Becton Dickinson, Germany). Applying Prism8 software (GraphPad Sowtware, USA), the respective KD value for each of the antibodies of the invention were calculated.

B1: antibody 16 (antibody, V domains shown)
VH: QVTLKESGPGILQPSQTLSLTCSFSGFSLSTFALGVGWIRQPSGRGLEWLAHIWWDDDKYYNPALKSRLTISKDTSKNHVFLKIANVDTADTATYYCARITTYYYGMDYWGQGTSVTVSS
VL: DIVLSQSPATLSVTPGDSVSLFCRASQSIGNHLHWYQQESHASPRLLIKYASQSISGIPSRFSGSGSGTDFTLSINSVETEDFGMYFCQQSYNWPLTFGAGTKLELK
notes: mouse IgG, kappa light chain; also called clone #16; purified antibody 16
With B1, the Kd turned out to be 0.34 nM.

B2: antibody 3 (antibody, V domains shown)
VH: QVTLKESGPGILQPSQTLSLTCSFSGFSLTTFAMGIGWVRQPSGKGLEWLAHIWWDGEKYNNPVLKSRLTISKDTSKNQVFLRIANVDTPDTATYYCARISSIYYIIDNWGQGTSVTVSS
VL: B1 VL with S5T, D17H, F22S, G30S, H32N, Q38K, E39K, A42E, A51V
notes: mouse IgG, kappa light chain; also called clone #3; purified antibody 3
B2: binding was put at a Kd of 2.97 nM.

B3: antibody 5 (antibody, V domains shown)
VH: QVTLKESGPGILQPSQTLSLTCSFSGFSLSTFGMGVGWIRQPSGKGLEWLAHIWWDDEKYYNSALKSRLTISKATSKNQAFLKIANVDTADTATYYCARISNYGSNYWYFNVWGTGTTVTVSS
VL: QVVLTQSPALMSASPGEKVTMTCSAGSSVSCMYWYQQKPGSSPRVLIYDTSNLASGVPARFTGSGSGTSYSLTISRMEAEDAASYYCQQWNSYPLTFGAGTKLELK
notes: mouse IgG, kappa light chain; also called clone #5; purified antibody 5
On to B3, for which the affinity, expressed as Kd, was 3.35 nM.

B4: antibody 44 (antibody, V domains shown)
VH: B3 VH with G44E, E58D, S63P, A74D, A80I, A85T, D91E, A98S, S101G, N111D
VL: QIVLTQSPAVMSASPGEKVTMTCTASSSVYYMYWYQQTPGSSPRLLIYDTSNLASGVPVRFSGSGSGTSYSLTISRMEAEDAATYYCQQWNTYPLTFGAGTKLELK
notes: mouse IgG, kappa light chain; also called clone #44; purified antibody 44
For the molecule B4, the Kd came to 0.44 nM.

B5: antibody 42 (antibody, V domains shown)
VH: B3 VH with F24L, M34R, S63P, A74D, A80V, K83R, S101Q, N111D
VL: LIVLTQSPAIMSASPGEKVTMTCGATSRISYMFWYQQKPGSSPRVLIYDTSNLASGVPVRFSGSGSGTSYSLTISRVEAEDVATYYCQQWNSYPLTFGAGTKLELK
notes: mouse IgG, kappa light chain; also called clone #42; purified antibody 42
As to B5, the Kd was 1.9 nM.

B6: antibody 43 (antibody, V domains shown)
VH: B3 VH with T3A, P42S, H52N, E58D, S63P, A74D, T75A, S101G, N111D
VL: B5 VL with L1Q, K18R, G24S, T26N, F33Y, V45L, V77M, V82A, Y86N, N91S
notes: mouse IgG, kappa light chain; also called clone #43; purified antibody 43
For B6, binding was put at a Kd of 4.55 nM.

B7: antibody 22 (antibody, V domains shown)
VH: B3 VH with A80V
VL: B3 VL with C31Y, S84T
notes: mouse IgG, kappa light chain; also called clone #22; purified antibody 22
The molecule B7 gave a Kd of 2.04 nM.

B8: antibody 34 (antibody, V domains shown)
VH: QVTLKESGPGILQPSQTLSLTCSFSGFSLSTFSLGVGWIRQSSGKGLEWLAHIWWDDEKYYNPALKSRLTISKDTSKNQVFLKIANVDAADTATYYCARAYYSKSYYALDYWGQGTSVTVSS
VL: DIQMTQSPSSLSASLGERVSLTCRASQEISGYLSWLQQKPDGTIKRLIYAASTLDSGVPKRFSGSRSGSDYSLAISSLESEDFADYYCLQYANFPFTFGSGTKLEIK
notes: mouse IgG, kappa light chain; also called clone #34; purified antibody 34
On to B8, for which the Kd was 1.94 nM.

B9: antibody 48 (antibody, V domains shown)
VH: QVQLQQSGTELVRPGTSVKVSCKASGYAFTNYLIEWVKQRPGQGLEWIGVINPGSGFTKYNEKFKGKATLTADKSSSTVYMHLSSLTSEDSAVYFCARGLYRAMDYWGQGTSVTVSS
VL: DIQMTQSPASQSASLGESVTITCLASQTIATWLAWYQQKPGKSPQLLIYGATTLADGVPSRFSGGGSGTKFSFKISSLQAEDFVSYYCQQLYSTPYTFGGGTKLEIK
notes: mouse IgG, kappa light chain; also called clone #48; purified antibody 48
B9 displayed a Kd of 1.73 nM.

B10: antibody 50 (antibody, V domains shown)
VH: B9 VH with T9A, T16A, T30S, V79A, H82Q
VL: B9 VL with A30G, G50A, T52A, T53S, S85N, L91I
notes: mouse IgG, kappa light chain; also called clone #50; purified antibody 50
Take B10: binding was characterised by a dissociation constant (Kd) of 1.43 nM.
